± gives the standard deviation of the averaged measurements.
system: ATP; assay: switch fluorescence ratio, 500 uM ATP over buffer (Cy3 cluster intensity, sum of 5 cycles each) (fold (ratio)); higher = stronger signal-on switching upon ATP binding; sequences stand for … in TCGTCGGCAGCGTCAGATGTGTATAAGAGACAGTTTTTTTTTTTTTTTTTTTTTTTTT…TC; settings: aptamer strand: ATP DNA aptamer (quencher-CACCTGGGGGAGTATTGCGGAGGAAGG + anchor), 100 nM annealed; ATP concentration: 500 uM
How it was run: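 Cy3-labelled switching-strand clusters on a modified Illumina MiSeq flow-cell were annealed to 100 nM quencher-labelled ATP aptamer, imaged in selection buffer, then imaged after 15 min with 500 uM ATP at 22 °C. Five buffer/ATP cycles ran, with NaOH stripping and re-annealing between them. The fluorescence ratio is summed target-cycle over summed buffer-cycle Cy3 intensity per cluster, averaged per switch-domain sequence. Clusters outside 100-1000 RFU were excluded.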
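Also: ATP exposure 15 min at 22 °C before imaging.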

Sequence | switch fluorescence ratio
TGAGGCCCAG | 1.01 ± 0.019
TGAGGCCGGG | 1 ± 0.021
TGAGGGGCAG | 0.984 ± 0.013
TGAGGGGGCG | 1.03 ± 0.11
TGAGGGGGCT | 0.9862 ± 0.0034
TGAGGGGTGG | 0.961 ± 0.038
TGAGGGTGGT | 0.981 ± 0.0012
TGAGGGTGTT | 0.998 ± 0.011
TGAGGGTTGC | 1.01 ± 0.018
TGAGGTAGGC | 1.05 ± 0.024
TGAGGTCAGA | 1.03 ± 0.013
TGAGGTGAAA | 0.976 ± 0.03
TGAGGTGCGT | 0.995 ± 0.033
TGAGGTTTAG | 1.02 ± 0.028
TGAGTAGGGG | 0.994 ± 0.017
TGAGTATTAG | 0.999 ± 0.033
TGAGTATTGC | 0.969 ± 0.04
TGAGTATTGG | 0.99 ± 0.027
TGAGTCAAGC | 1.01 ± 0.076
TGAGTGAAAT | 1.1 ± 0.014
TGAGTGAATG | 0.9787 ± 0.0042
TGAGTGATGT | 1.01 ± 0.023
TGAGTGCAGC | 1.08 ± 0.12
TGAGTGGATG | 0.971 ± 0.075
TGAGTTAGGC | 1.04 ± 0.054

Sequence | switch fluorescence ratio
TGAGTTCGTA | 1.02 ± 0.012
TGAGTTGAAG | 0.9869 ± 0.0056
TGAGTTTGGT | 0.97 ± 0.018
TGATAATTTG | 1.006 ± 0.01
TGATACATAA | 1.028 ± 0.0097
TGATACTGGG | 1.06 ± 0.06
TGATACTTAG | 1.061 ± 0.0084
TGATAGACAT | 0.988 ± 0.019
TGATAGGATT | 0.9764 ± 0.0021
TGATAGGGTG | 1.03 ± 0.053
TGATATAGGA | 1.01 ± 0.064
TGATATATTT | 1.02 ± 0.046
TGATATTGGT | 1.01 ± 0.021
TGATCAAGGA | 0.997 ± 0.041
TGATCATGCG | 1 ± 0.011
TGATCCGGAG | 1.08 ± 0.038
TGATCCGGAT | 1.02 ± 0.09
TGATCGGGCA | 0.956 ± 0.031
TGATCGTGAG | 1.02 ± 0.017
TGATGAGATC | 0.9734 ± 0.0082
TGATGAGTCG | 1.0211 ± 0.00074
TGATGATATA | 1.02 ± 0.013
TGATGCAAGA | 1.3 ± 0.063
TGATGCATGG | 1.05 ± 0.048
TGATGGAGTA | 0.969 ± 0.016

Sequence | switch fluorescence ratio
TGATGGCAAC | 1.11 ± 0.036
TGATGGGGCG | 0.982 ± 0.023
TGATGGGTC | 0.9961 ± 0.0054
TGATGGTGC | 1.05 ± 0.066
TGATGTGGGA | 1.027 ± 0.0047
TGATGTTAAA | 0.998 ± 0.01
TGATGTTATA | 0.968 ± 0.022
TGATTAAGAT | 0.994 ± 0.026
TGATTAGAGG | 1.02 ± 0.1
TGATTATCTT | 1.047 ± 0.0097
TGATTATTT | 0.978 ± 0.032
TGATTCCGCT | 1.41 ± 0.025
TGATTCCTGC | 1.02 ± 0.039
TGATTCGAGC | 1.003 ± 0.0058
TGATTCGGGT | 0.984 ± 0.029
TGATTCGTTT | 0.985 ± 0.094
TGATTGGTAA | 0.939 ± 0.021
TGATTGTATC | 0.981 ± 0.055
TGATTGTGTA | 0.987 ± 0.048
TGATTGTTTG | 1.01 ± 0.034
TGATTTAATA | 0.984 ± 0.025
TGATTTATG | 1.01 ± 0.002
TGATTTATTC | 0.9632 ± 0.0032
TGATTTGGAC | 1.01 ± 0.061
TGATTTTCTC | 1.01 ± 0.048

Sequence | switch fluorescence ratio
TGATTTTGCC | 1.01 ± 0.018
TGATTTTTGT | 0.997 ± 0.021
TGCAAAAAGG | 1.03 ± 0.014
TGCAAATTGC | 0.997 ± 0.019
TGCAACCTCC | 2.29 ± 1.1
TGCAAGGGCG | 0.981 ± 0.021
TGCAATGATG | 1.04 ± 0.039
TGCAATGGGC | 1.21 ± 0.086
TGCAATGGGG | 1.12 ± 0.07
TGCAATTCGT | 1.13 ± 0.033
TGCAATTTCG | 1.07 ± 0.065
TGCAATTTTA | 1.03 ± 0.023
TGCACGATTG | 1.03 ± 0.03
TGCACGGCTT | 1.13 ± 0.03
TGCACTAGAA | 1.01 ± 0.017
TGCAGATCGG | 0.9927 ± 0.0028
TGCAGATTTT | 0.994 ± 0.033
TGCAGCATCT | 1.13 ± 0.032
TGCAGCTTGC | 1.25 ± 0.24
TGCAGGAATT | 1.09 ± 0.17
TGCAGGGGTT | 1.05 ± 0.02
TGCAGTGGGG | 1.014 ± 0.0085
TGCATATAAT | 1.018 ± 0.0014
TGCATATATA | 1.29 ± 0.36
TGCATGTCTC | 1.43 ± 0.46

— the supplement of paper PMC10126150
